From the Immune Epitope Database (IEDB)

How the values were obtained:
HLA-A*02:01 [1] = experiment: IEDB peptide-MHC binding, purified MHC/competitive/radioactivity; filed as Kd, often an IC50 or EC50 that approximates it; ≥ and ≤ were set here for values at or beyond the usual limits of such assays
HLA-A*26:01 = experiment: IEDB peptide-MHC binding, purified MHC/competitive/fluorescence; filed as Kd, often an IC50 or EC50 that approximates it; ≥ and ≤ were set here for values at or beyond the usual limits of such assays
HLA-A*69:01 = experiment: as above; details: source organism: Homo sapiens
HLA-B*15:01 = experiment: as above
HLA-B*51:01 [2] = experiment: as above
HLA-B*35:01 = experiment: IEDB peptide-MHC binding, purified MHC/competitive/radioactivity; filed as Kd, often an IC50 or EC50 that approximates it; ≥ and ≤ were set here for values at or beyond the usual limits of such assays
HLA-B*53:01 = experiment: as above
HLA-B*54:01 = experiment: as above
HLA-B*07:02 = experiment: as above
HLA-B*51:01 [3] = experiment: as above
HLA-A*02:06 = experiment: as above; details: source organism: Vaccinia virus WR
HLA-A*02:02 = experiment: as above; details: source organism: Vaccinia virus WR
HLA-A*11:01 = experiment: as above; details: source organism: Vaccinia virus WR
HLA-A*33:01 = experiment: as above; details: source organism: Vaccinia virus WR
HLA-A*03:01 [4] = experiment: as above; details: source organism: Vaccinia virus WR
HLA-A*31:01 = experiment: as above; details: source organism: Vaccinia virus WR
HLA-A*68:01 = experiment: as above; details: source organism: Vaccinia virus WR
HLA-A*02:03 = experiment: as above; details: source organism: Vaccinia virus WR
HLA-A*68:02 = experiment: as above; details: source organism: Vaccinia virus WR
HLA-B*57:01 = experiment: IEDB peptide-MHC binding, purified MHC/competitive/fluorescence; filed as Kd, often an IC50 or EC50 that approximates it; ≥ and ≤ were set here for values at or beyond the usual limits of such assays; details: source organism: Orthohantavirus tulaense
HLA-B*27:03 = experiment: as above; details: source organism: Orthohantavirus tulaense
HLA-B*18:01 = experiment: as above; details: source organism: Orthohantavirus tulaense
HLA-A*03:01 [5] = experiment: IEDB peptide-MHC binding, purified MHC/direct/fluorescence; filed as Kd, often an IC50 or EC50 that approximates it; ≥ and ≤ were set here for values at or beyond the usual limits of such assays; details: source organism: Orthohantavirus tulaense
HLA-A*02:01 [6] = experiment: as above; details: source organism: Orthohantavirus andesense
HLA-B*48:01 = experiment: as above; details: source organism: Yellow fever virus
[7] = source organism: Vaccinia virus WR
[8] = source organism: SARS coronavirus Tor2
[9] = source organism: Triticum aestivum
[10] = source organism: Orthohantavirus tulaense
[11] = source organism: Mammarenavirus machupoense

LTDLGLIYTA was tested, and the Kd (HLA-A*02:01 [1]; source organism: Lassa virus GA391) was 0.893 µM.

In the case of LTVILGVLL, the Kd (HLA-A*02:01 [1]; source organism: Homo sapiens) is reported as 2.63 µM.

In the case of LVKSAWLSL, the Kd (HLA-A*26:01; source organism: Homo sapiens) is reported as ≥ 20 µM, the Kd (HLA-A*69:01) is reported as ≥ 20 µM and the Kd (HLA-B*15:01; source organism: Homo sapiens) is reported as ≥ 20 µM. For the same sequence, the Kd (HLA-B*51:01 [2]; source organism: Homo sapiens) was ≥ 20 µM.

With LVVDFSQFSR the Kd (HLA-A*02:01 [1]; source organism: Hepatitis B virus subtype adw2) was ≥ 35 µM.

With NPDQNTFPNI the Kd (HLA-B*35:01; [7]) was ≥ 69.9 µM, the Kd (HLA-B*53:01; [7]) was 3.74 µM and the Kd (HLA-B*54:01; [7]) was ≥ 69.9 µM. The Kd (HLA-B*07:02; [7]) was ≥ 69.6 µM and the Kd (HLA-B*51:01 [3]; [7]) was ≥ 33.6 µM.

In the case of NPIQLSSYSL, the Kd (HLA-B*35:01; [8]) is reported as 0.395 µM, the Kd (HLA-B*53:01; [8]) is reported as 0.531 µM and the Kd (HLA-B*54:01; [8]) is reported as 1.77 µM. It also gave a Kd (HLA-B*07:02; [8]) of 0.416 µM and a Kd (HLA-B*51:01 [3]; [8]) of 0.246 µM.

QPYLQLQPF gave a Kd (HLA-B*35:01; [9]) of 0.00619 µM, a Kd (HLA-B*53:01; [9]) of 0.478 µM and a Kd (HLA-B*54:01; [9]) of 11 µM. The Kd (HLA-B*07:02; [9]) was 0.149 µM and the Kd (HLA-B*51:01 [3]; [9]) was 0.101 µM.

For RPPLNRNYV, the Kd (HLA-B*35:01; [8]) was ≥ 21.4 µM, the Kd (HLA-B*53:01; [8]) was ≥ 78.2 µM and the Kd (HLA-B*54:01; [8]) was 0.661 µM. For the same sequence, the Kd (HLA-B*07:02; [8]) was 0.061 µM and the Kd (HLA-B*51:01 [3]; [8]) was 10.3 µM.

SFSLESDSIK was tested, and the Kd (HLA-A*02:06) was ≥ 59.7 µM, the Kd (HLA-B*35:01; [7]) was ≥ 69.9 µM and the Kd (HLA-B*53:01; [7]) was ≥ 69.9 µM. For the same sequence, the Kd (HLA-A*02:02) was ≥ 70 µM, the Kd (HLA-A*11:01) was 5.91 µM and the Kd (HLA-B*54:01; [7]) was ≥ 69.9 µM. The Kd (HLA-A*33:01) was ≥ 70 µM, the Kd (HLA-A*03:01 [4]) was ≥ 22 µM and the Kd (HLA-A*31:01) was 2.66 µM. The Kd (HLA-A*68:01) was 7.76 µM, the Kd (HLA-A*02:01 [1]; [7]) was ≥ 69.4 µM and the Kd (HLA-B*07:02; [7]) was ≥ 69.6 µM. For the same sequence, the Kd (HLA-A*02:03) was ≥ 70.4 µM, the Kd (HLA-B*51:01 [3]; [7]) was ≥ 69.6 µM and the Kd (HLA-A*68:02) was ≥ 69.8 µM.

In the case of SLFGAAVSL, the Kd (HLA-B*57:01) is reported as ≥ 20 µM, the Kd (HLA-B*27:03) is reported as ≥ 20 µM and the Kd (HLA-A*26:01; [10]) is reported as ≥ 20 µM. The Kd (HLA-B*18:01) was ≥ 20 µM, the Kd (HLA-B*15:01; [10]) was 0.0497 µM and the Kd (HLA-B*51:01 [2]; [10]) was ≥ 20 µM. For the same sequence, the Kd (HLA-A*03:01 [5]) was ≥ 20 µM and the Kd (HLA-A*02:01 [6]) was ≤ 0.0001 µM.

For SLHVGTQCA, the Kd (HLA-A*02:01 [1]; source organism: Homo sapiens) was 1.44 µM.

For SLRVLAAGL, the Kd (HLA-A*02:01 [1]; source organism: Homo sapiens) was ≥ 50 µM.

For SPAHLINKLL, the Kd (HLA-B*35:01; [7]) was ≥ 51 µM, the Kd (HLA-B*53:01; [7]) was 6.85 µM and the Kd (HLA-B*54:01; [7]) was 2.96 µM. The Kd (HLA-B*07:02; [7]) was 0.0266 µM and the Kd (HLA-B*51:01 [3]; [7]) was 5.34 µM.

With SPGEIKPKF the Kd (HLA-B*35:01; [7]) was 8.55 µM, the Kd (HLA-B*53:01; [7]) was 0.174 µM and the Kd (HLA-B*54:01; [7]) was ≥ 51.1 µM. For the same sequence, the Kd (HLA-B*07:02; [7]) was 0.0797 µM and the Kd (HLA-B*51:01 [3]; [7]) was ≥ 70.2 µM.

With SRLLMRRMR the Kd (HLA-B*48:01) was ≥ 20 µM.

TFFSYLMKDK was tested, and the Kd (HLA-A*02:06) was ≥ 69.8 µM, the Kd (HLA-B*35:01; [7]) was ≥ 69.9 µM and the Kd (HLA-B*53:01; [7]) was ≥ 24.2 µM. The Kd (HLA-A*02:02) was ≥ 50.3 µM, the Kd (HLA-A*11:01) was 0.0128 µM and the Kd (HLA-B*54:01; [7]) was ≥ 69.9 µM. The Kd (HLA-A*33:01) was 2.69 µM, the Kd (HLA-A*03:01 [4]) was 1.6 µM and the Kd (HLA-A*31:01) was 0.56 µM. For the same sequence, the Kd (HLA-A*68:01) was 0.0959 µM, the Kd (HLA-A*02:01 [1]; [7]) was ≥ 69.4 µM and the Kd (HLA-B*07:02; [7]) was 16.2 µM. For the same sequence, the Kd (HLA-A*02:03) was ≥ 70.4 µM, the Kd (HLA-B*51:01 [3]; [7]) was ≥ 69.6 µM and the Kd (HLA-A*68:02) was ≥ 69.8 µM.

VPINVAEAY was tested, and the Kd (HLA-B*35:01; [11]) was 0.00628 µM, the Kd (HLA-B*53:01; [11]) was 0.202 µM and the Kd (HLA-B*54:01; [11]) was ≥ 50.5 µM. The Kd (HLA-B*07:02; [11]) was 13.7 µM and the Kd (HLA-B*51:01 [3]; [11]) was ≥ 57 µM.

VPTNDHIPVV gave a Kd (HLA-B*35:01; [7]) of 10.6 µM, a Kd (HLA-B*53:01; [7]) of 12 µM and a Kd (HLA-B*54:01; [7]) of 0.000661 µM. For the same sequence, the Kd (HLA-B*07:02; [7]) was 0.17 µM and the Kd (HLA-B*51:01 [3]; [7]) was 0.0509 µM.
